In patent US20260226503A1 (NORTH CAROLINA STATE UNIVERSITY, published 2026):
Where no end group is shown, it is not given here. Toyopearl AF‑Amino‑650M resin = chromatographic resin to which the peptide C-terminus is conjugated

Tests used:
AAV2 capsid [1] = biological target: T1, AAV2 capsid (adeno-associated virus serotype 2, UniProt P03135 1-735; P03135 1-598; P03135 1-533); experiment: bind-and-elute chromatography, pure AAV2, non-competitive mode, pH 7.0; AAV titer by ELISA
T1 construct: Whole assembled capsid, VP1:VP2:VP3 about 1:1:10; AF594-labelled in the library screen; GFP transgene in the lysate runs; a spherical cap of collated PDB structures in the docking; also called adeno-associated virus serotype 2

AAV2 capsid [2] = biological target: T1, AAV2 capsid; experiment: bind-and-elute chromatography, pure AAV2; bound at pH 7.0, eluted with 1 M MgCl2 pH 6.0; ELISA
AAV9 capsid = AAV9 capsid (adeno-associated virus serotype 9); experiment: bind-and-elute chromatography, pure AAV9; bound at pH 7.0, eluted with 1 M MgCl2 pH 6.0; ELISA
AAV2 capsid [3] = biological target: T1, AAV2 capsid; experiment: dynamic binding capacity at 10% breakthrough; AAV2 in HEK293 lysate, 3.2e11 vp/mL, PBS pH 7.4, residence time 3 min

Binder	loss (AAV titer in flow-through and wash vs. load) (AAV2 capsid [1])	yield (AAV titer in elution fraction vs. load) (AAV2 capsid [2])	yield (AAV titer in elution fraction vs. load) (AAV9 capsid)	DBC10% (vp AAV per mL of resin) (AAV2 capsid [3])
WKAHNKG-{Toyopearl AF‑Amino‑650M resin} (Peptide immobilised on chromatographic resin; also called W2) [WKAHNKG-Toyopearl resin]	< 1.7%	79.8%		
IWWHIAKFG-{Toyopearl AF‑Amino‑650M resin} (Peptide immobilised on chromatographic resin; also called W3) [IWWHIAKFG-Toyopearl resin]	< 1.7%	54.9%	61.7%	9.53e+12 vp AAV per mL of resin
IAFKKISIG-{Toyopearl AF‑Amino‑650M resin} (Peptide immobilised on chromatographic resin; also called W6) [IAFKKISIG-Toyopearl resin]	< 1.7%			
IKIFFFFSG-{Toyopearl AF‑Amino‑650M resin} (Peptide immobilised on chromatographic resin; also called W7) [IKIFFFFSG-Toyopearl resin]	< 1.7%			1.02e+13 vp AAV per mL of resin
WWIKISG-{Toyopearl AF‑Amino‑650M resin} (Peptide immobilised on chromatographic resin; also called W9) [WWIKISG-Toyopearl resin]	< 1.7%			
FWWAAFFKG-{Toyopearl AF‑Amino‑650M resin} (Peptide immobilised on chromatographic resin; also called W5) [FWWAAFFKG-Toyopearl resin]	< 1.7%	44.8%	53.7%	
KFNHWFG-{Toyopearl AF‑Amino‑650M resin} (Peptide immobilised on chromatographic resin; also called W1; KFNHWF-Toyopearl) [KFNHWFG-Toyopearl resin]	< 1.7%	45%		1.33e+13 vp AAV per mL of resin
KWWIWAG-{Toyopearl AF‑Amino‑650M resin} (Peptide immobilised on chromatographic resin; also called W8) [KWWIWAG-Toyopearl resin]	< 1.7%		57.2%	
FNHFFIG-{Toyopearl AF‑Amino‑650M resin} (Peptide immobilised on chromatographic resin; also called W11) [FNHFFIG-Toyopearl resin]	< 1.7%			
FFNFFKG-{Toyopearl AF‑Amino‑650M resin} (Peptide immobilised on chromatographic resin; also called W10; FFNFFK-Toyopearl) [FFNFFKG-Toyopearl resin]	< 1.7%		72.4%	1.4e+13 vp AAV per mL of resin
FWNWHHFKG-{Toyopearl AF‑Amino‑650M resin} (Peptide immobilised on chromatographic resin; also called W4) [FWNWHHFKG-Toyopearl resin]	< 1.7%		43.9%	8.75e+12 vp AAV per mL of resin
